Laboratory results reported in patent US10189900B2, “Method for screening for autophagy activator or inhibitor” (KOREA FOOD RESEARCH INSTITUTE, priority 2014, dated 2019).

Tests used:
Ser30 of Beclin 1 = experiment: Beclin 1 Ser30 phosphorylation after compound treatment (immunoprecipitation of endogenous Beclin 1, phospho-Ser30 antibody); format: cell-based; settings: HEK293T cells treated for 0, 15, 30, 60 and 120 min; endogenous Beclin 1 isolated by immunoprecipitation; rabbit phospho-Ser30 antibody
Experimental: For co-immunoprecipitation, cell extracts were prepared in a buffer containing 40 mM HEPES, pH 7.4, 120 mM NaCl, 1 mM EDTA, 50 mM NaF, 1.5 mM Na3VO4, 10 mM Mb-glycerophosphate, 1% triton X-100, and protease inhibitor (Roche). Immunoprecipitated proteins were washed four times with a lysis buffer, and loaded onto 8% Tris-glycine gels. The resultant proteins were transferred onto polyvinylidene difluoride (PVDF) membranes (Bio-Rad, USA), and detected with western blotting detection reagents (Perkin Elmer, USA).
(§1) HEK293T cells were treated with rapamycin for predetermined periods of time (0, 15, 30, 60, and 120 min). Endogenous Beclin 1 was isolated by immunoprecipitation. The phosphorylation of Ser30 was analyzed using rabbit antibodies developed in the present invention. It was verified that Ser30 of Beclin 1 was phosphorylated by rapamycin (FIG. 5). Rapamycin increases the activity of ULK1.
as §1, with “torin” for “rapamycin”, “6).” for “5). Rapamycin increases the activity of ULK1.”

[1] = biological target: myc-tagged Beclin 1, Q14457
Chain of myc-tagged Beclin 1, Q14457 (Q14457 whole entry, looked up): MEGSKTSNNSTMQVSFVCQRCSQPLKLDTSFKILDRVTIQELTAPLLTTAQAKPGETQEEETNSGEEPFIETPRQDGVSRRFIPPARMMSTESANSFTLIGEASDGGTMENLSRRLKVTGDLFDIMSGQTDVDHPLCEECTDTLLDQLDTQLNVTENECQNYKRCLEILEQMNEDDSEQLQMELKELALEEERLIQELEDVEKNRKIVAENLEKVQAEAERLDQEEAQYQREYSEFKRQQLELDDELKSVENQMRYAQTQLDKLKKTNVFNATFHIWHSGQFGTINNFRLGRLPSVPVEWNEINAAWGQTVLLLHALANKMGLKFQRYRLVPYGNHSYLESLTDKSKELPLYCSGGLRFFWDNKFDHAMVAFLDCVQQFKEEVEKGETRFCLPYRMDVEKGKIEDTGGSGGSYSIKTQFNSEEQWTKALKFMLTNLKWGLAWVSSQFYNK

[2] = biological target: Recombinant Beclin 1 isolated from E. coli, Q14457
Chain of Recombinant Beclin 1 isolated from E. coli, Q14457 (Q14457 whole entry, looked up): as above

## torin
Ser30 of Beclin 1
  phosphorylation of Ser30 of Beclin 1: phosphorylated

B1: HA-tagged ULK1 wild type (protein)
chain: MEPGRGGTETVGKFEFSRKDLIGHGAFAVVFKGRHREKHDLEVAVKCINKKNLAKSQTLLGKEIKILKELKHENIVALYDFQEMANSVYLVMEYCNGGDLADYLHAMRTLSEDTIRLFLQQIAGAMRLLHSKGIIHRDLKPQNILLSNPAGRRANPNSIRVKIADFGFARYLQSNMMAATLCGSPMYMAPEVIMSQHYDGKADLWSIGTIVYQCLTGKAPFQASSPQDLRLFYEKNKTLVPTIPRETSAPLRQLLLALLQRNHKDRMDFDEFFHHPFLDASPSVRKSPPVPVPSYPSSGSGSSSSSSSTSHLASPPSLGEMQQLQKTLASPADTAGFLHSSRDSGGSKDSSCDTDDFVMVPAQFPGDLVAEAPSAKPPPDSLMCSGSSLVASAGLESHGRTPSPSPPCSSSPSPSGRAGPFSSSRCGASVPIPVPTQVQNYQRIERNLQSPTQFQTPRSSAIRRSGSTSPLGFARASPSPPAHAEHGGVLARKMSLGGGRPYTPSPQVGTIPERPGWSGTPSPQGAEMRGGRSPRPGSSAPEHSPRTSGLGCRLHSAPNLSDLHVVRPKLPKPPTDPLGAVFSPPQASPPQPSHGLQSCRNLRGSPKLPDFLQRNPLPPILGSPTKAVPSFDFPKTPSSQNLLALLARQGVVMTPPRNRTLPDLSEVGPFHGQPLGPGLRPGEDPKGPFGRSFSTSRLTDLLLKAAFGTQAPDPGSTESLQEKPMEIAPSAGFGGSLHPGARAGGTSSPSPVVFTVGSPPSGSTPPQGPRTRMFSAGPTGSASSSARHLVPGPCSEAPAPELPAPGHGCSFADPITANLEGAVTFEAPDLPEETLMEQEHTEILRGLRFTLLFVQHVLEIAALKGSASEAAGGPEYQLQESVVADQISLLSREWGFAEQLVLYLKVAELLSSGLQSAIDQIRAGKLCLSSTVKQVVRRLNELYKASVVSCQGLSLRLQRFFLDKQRLLDRIHSITAERLIFSHAVQMVQSAALDEMFQHREGCVPRYHKALLLLEGLQHMLSDQADIENVTKCKLCIERRLSALLTGICA
[1]
  band shift on SDS-PAGE (western blot): Beclin 1 co-expressed together with ULK1 showed band shift

B2: myc-tagged ULK1 KD (M92) mutant (protein)
chain: MEPGRGGTETVGKFEFSRKDLIGHGAFAVVFKGRHREKHDLEVAVKCINKKNLAKSQTLLGKEIKILKELKHENIVALYDFQEMANSVYLVAEYCNGGDLADYLHAMRTLSEDTIRLFLQQIAGAMRLLHSKGIIHRDLKPQNILLSNPAGRRANPNSIRVKIADFGFARYLQSNMMAATLCGSPMYMAPEVIMSQHYDGKADLWSIGTIVYQCLTGKAPFQASSPQDLRLFYEKNKTLVPTIPRETSAPLRQLLLALLQRNHKDRMDFDEFFHHPFLDASPSVRKSPPVPVPSYPSSGSGSSSSSSSTSHLASPPSLGEMQQLQKTLASPADTAGFLHSSRDSGGSKDSSCDTDDFVMVPAQFPGDLVAEAPSAKPPPDSLMCSGSSLVASAGLESHGRTPSPSPPCSSSPSPSGRAGPFSSSRCGASVPIPVPTQVQNYQRIERNLQSPTQFQTPRSSAIRRSGSTSPLGFARASPSPPAHAEHGGVLARKMSLGGGRPYTPSPQVGTIPERPGWSGTPSPQGAEMRGGRSPRPGSSAPEHSPRTSGLGCRLHSAPNLSDLHVVRPKLPKPPTDPLGAVFSPPQASPPQPSHGLQSCRNLRGSPKLPDFLQRNPLPPILGSPTKAVPSFDFPKTPSSQNLLALLARQGVVMTPPRNRTLPDLSEVGPFHGQPLGPGLRPGEDPKGPFGRSFSTSRLTDLLLKAAFGTQAPDPGSTESLQEKPMEIAPSAGFGGSLHPGARAGGTSSPSPVVFTVGSPPSGSTPPQGPRTRMFSAGPTGSASSSARHLVPGPCSEAPAPELPAPGHGCSFADPITANLEGAVTFEAPDLPEETLMEQEHTEILRGLRFTLLFVQHVLEIAALKGSASEAAGGPEYQLQESVVADQISLLSREWGFAEQLVLYLKVAELLSSGLQSAIDQIRAGKLCLSSTVKQVVRRLNELYKASVVSCQGLSLRLQRFFLDKQRLLDRIHSITAERLIFSHAVQMVQSAALDEMFQHREGCVPRYHKALLLLEGLQHMLSDQADIENVTKCKLCIERRLSALLTGICA
[2]
  incorporation of 32P into Beclin 1 (in vitro kinase reaction, autoradiogram): KD mutant-added Beclin 1 was not phosphorylated

B3: HA-tagged ULK1 M92A KD (kinase dead) mutant (protein)
chain: MEPGRGGTETVGKFEFSRKDLIGHGAFAVVFKGRHREKHDLEVAVKCINKKNLAKSQTLLGKEIKILKELKHENIVALYDFQEMANSVYLVAEYCNGGDLADYLHAMRTLSEDTIRLFLQQIAGAMRLLHSKGIIHRDLKPQNILLSNPAGRRANPNSIRVKIADFGFARYLQSNMMAATLCGSPMYMAPEVIMSQHYDGKADLWSIGTIVYQCLTGKAPFQASSPQDLRLFYEKNKTLVPTIPRETSAPLRQLLLALLQRNHKDRMDFDEFFHHPFLDASPSVRKSPPVPVPSYPSSGSGSSSSSSSTSHLASPPSLGEMQQLQKTLASPADTAGFLHSSRDSGGSKDSSCDTDDFVMVPAQFPGDLVAEAPSAKPPPDSLMCSGSSLVASAGLESHGRTPSPSPPCSSSPSPSGRAGPFSSSRCGASVPIPVPTQVQNYQRIERNLQSPTQFQTPRSSAIRRSGSTSPLGFARASPSPPAHAEHGGVLARKMSLGGGRPYTPSPQVGTIPERPGWSGTPSPQGAEMRGGRSPRPGSSAPEHSPRTSGLGCRLHSAPNLSDLHVVRPKLPKPPTDPLGAVFSPPQASPPQPSHGLQSCRNLRGSPKLPDFLQRNPLPPILGSPTKAVPSFDFPKTPSSQNLLALLARQGVVMTPPRNRTLPDLSEVGPFHGQPLGPGLRPGEDPKGPFGRSFSTSRLTDLLLKAAFGTQAPDPGSTESLQEKPMEIAPSAGFGGSLHPGARAGGTSSPSPVVFTVGSPPSGSTPPQGPRTRMFSAGPTGSASSSARHLVPGPCSEAPAPELPAPGHGCSFADPITANLEGAVTFEAPDLPEETLMEQEHTEILRGLRFTLLFVQHVLEIAALKGSASEAAGGPEYQLQESVVADQISLLSREWGFAEQLVLYLKVAELLSSGLQSAIDQIRAGKLCLSSTVKQVVRRLNELYKASVVSCQGLSLRLQRFFLDKQRLLDRIHSITAERLIFSHAVQMVQSAALDEMFQHREGCVPRYHKALLLLEGLQHMLSDQADIENVTKCKLCIERRLSALLTGICA
[1]
  band shift on SDS-PAGE (western blot): Beclin 1 co-expressed together with ULK1 M92A KD showed no band shift

B4: myc-tagged ULK1 wild type (protein)
chain: MEPGRGGTETVGKFEFSRKDLIGHGAFAVVFKGRHREKHDLEVAVKCINKKNLAKSQTLLGKEIKILKELKHENIVALYDFQEMANSVYLVMEYCNGGDLADYLHAMRTLSEDTIRLFLQQIAGAMRLLHSKGIIHRDLKPQNILLSNPAGRRANPNSIRVKIADFGFARYLQSNMMAATLCGSPMYMAPEVIMSQHYDGKADLWSIGTIVYQCLTGKAPFQASSPQDLRLFYEKNKTLVPTIPRETSAPLRQLLLALLQRNHKDRMDFDEFFHHPFLDASPSVRKSPPVPVPSYPSSGSGSSSSSSSTSHLASPPSLGEMQQLQKTLASPADTAGFLHSSRDSGGSKDSSCDTDDFVMVPAQFPGDLVAEAPSAKPPPDSLMCSGSSLVASAGLESHGRTPSPSPPCSSSPSPSGRAGPFSSSRCGASVPIPVPTQVQNYQRIERNLQSPTQFQTPRSSAIRRSGSTSPLGFARASPSPPAHAEHGGVLARKMSLGGGRPYTPSPQVGTIPERPGWSGTPSPQGAEMRGGRSPRPGSSAPEHSPRTSGLGCRLHSAPNLSDLHVVRPKLPKPPTDPLGAVFSPPQASPPQPSHGLQSCRNLRGSPKLPDFLQRNPLPPILGSPTKAVPSFDFPKTPSSQNLLALLARQGVVMTPPRNRTLPDLSEVGPFHGQPLGPGLRPGEDPKGPFGRSFSTSRLTDLLLKAAFGTQAPDPGSTESLQEKPMEIAPSAGFGGSLHPGARAGGTSSPSPVVFTVGSPPSGSTPPQGPRTRMFSAGPTGSASSSARHLVPGPCSEAPAPELPAPGHGCSFADPITANLEGAVTFEAPDLPEETLMEQEHTEILRGLRFTLLFVQHVLEIAALKGSASEAAGGPEYQLQESVVADQISLLSREWGFAEQLVLYLKVAELLSSGLQSAIDQIRAGKLCLSSTVKQVVRRLNELYKASVVSCQGLSLRLQRFFLDKQRLLDRIHSITAERLIFSHAVQMVQSAALDEMFQHREGCVPRYHKALLLLEGLQHMLSDQADIENVTKCKLCIERRLSALLTGICA
[2]
  incorporation of 32P into Beclin 1 (in vitro kinase reaction, autoradiogram): The ULK1 wild type phosphorylates Beclin 1
